{"source": "paper PMC12365241", "molecular_target": "PorK (Porphyromonas gingivalis (endogenous))", "experiment": "cryo-EM structure", "note": "Values joined by “and” are separate entries in the source; they are usually repeats but may differ in a detail not shown here. Equal entries are not always repeated.", "data": [{"substance": "PorK (natural protein)", "values": [{"measurement": "stoichiometry N", "result": "32 and 33"}]}]}
